T1: cynomolgus monkey TG2 (cynomolgus monkey, UniProt A0A2K5VXI8 1-687)
T1 construct: Bought recombinant protein; also called cynomogulus monkey TG2; cyano TG2
T1 sequence: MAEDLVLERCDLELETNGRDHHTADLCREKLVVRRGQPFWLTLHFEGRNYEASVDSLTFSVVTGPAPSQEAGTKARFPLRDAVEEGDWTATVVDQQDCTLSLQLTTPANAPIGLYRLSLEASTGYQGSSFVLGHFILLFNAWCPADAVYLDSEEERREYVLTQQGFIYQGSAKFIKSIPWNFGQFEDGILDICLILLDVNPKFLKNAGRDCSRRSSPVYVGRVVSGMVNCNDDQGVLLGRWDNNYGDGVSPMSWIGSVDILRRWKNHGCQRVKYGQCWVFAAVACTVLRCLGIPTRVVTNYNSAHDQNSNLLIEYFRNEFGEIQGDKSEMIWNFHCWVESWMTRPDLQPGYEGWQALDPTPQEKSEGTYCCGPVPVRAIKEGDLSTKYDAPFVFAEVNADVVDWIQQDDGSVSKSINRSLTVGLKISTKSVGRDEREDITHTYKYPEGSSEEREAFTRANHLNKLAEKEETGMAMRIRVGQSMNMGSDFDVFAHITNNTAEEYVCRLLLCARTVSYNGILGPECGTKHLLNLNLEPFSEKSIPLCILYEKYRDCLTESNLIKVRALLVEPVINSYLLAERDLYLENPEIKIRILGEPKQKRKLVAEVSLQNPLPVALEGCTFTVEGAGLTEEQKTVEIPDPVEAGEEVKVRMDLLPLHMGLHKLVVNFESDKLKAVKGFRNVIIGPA

T2: human transglutaminase type 2 (TG2) (human, UniProt P21980 1-687)
T2 construct: Recombinant full-length human TG2 (Zedira; cat; T002 in the Biacore work); Also used here for the endogenous TG2 of HepG2 lysate and HK-2 cells; also called hTG2; rhTG2
T2 sequence: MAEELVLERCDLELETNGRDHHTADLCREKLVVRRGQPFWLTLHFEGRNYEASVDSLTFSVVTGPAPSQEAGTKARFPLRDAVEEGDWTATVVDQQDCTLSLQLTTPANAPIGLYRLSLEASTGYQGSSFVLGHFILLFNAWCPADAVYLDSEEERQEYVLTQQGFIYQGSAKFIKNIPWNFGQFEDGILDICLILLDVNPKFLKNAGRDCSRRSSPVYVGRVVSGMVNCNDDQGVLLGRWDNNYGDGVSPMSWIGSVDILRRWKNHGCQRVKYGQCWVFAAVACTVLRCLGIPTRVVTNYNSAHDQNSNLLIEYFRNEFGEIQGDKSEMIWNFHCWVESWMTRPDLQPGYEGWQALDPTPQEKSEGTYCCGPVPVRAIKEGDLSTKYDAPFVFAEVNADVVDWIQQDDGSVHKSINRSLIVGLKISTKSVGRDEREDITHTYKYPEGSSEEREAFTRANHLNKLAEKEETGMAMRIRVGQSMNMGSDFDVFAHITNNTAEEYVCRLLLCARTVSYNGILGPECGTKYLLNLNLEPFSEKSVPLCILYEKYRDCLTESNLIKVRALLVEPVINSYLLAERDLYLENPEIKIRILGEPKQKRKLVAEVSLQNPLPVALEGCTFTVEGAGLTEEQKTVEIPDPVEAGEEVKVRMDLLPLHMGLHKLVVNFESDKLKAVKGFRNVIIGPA


How the values were obtained:
cynomolgus monkey TG2 [1] = molecular target: T1, cynomolgus monkey TG2; experiment: SPR (Biacore T200), antibody captured on anti-human IgG1 Fc chip, TG2 injected; -Ca2+
Protocol: (§1) Recombinant cynomolgus monkey TG2 was obtained from Trenzyme. Surface plasmon resonance (SPR) was measured on a Biacore T200 instrument (GE Healthcare). CM5 chips (GE Healthcare cat. no.: BR-1006-68) were coated with monoclonal mouse anti-human IgG1 (Fc) (MAH) antibody (GE Healthcare cat. no.: BR-1008-39) by amine-coupling as described in the manufacturers instructions. HBS-EP+ buffer (0.01 M HEPES, 0.15 M NaCl, 3 mM EDTA, 0.05% v/v Surfactant P20) and HBS-P+ buffer (0.01 M HEPES, 0.15 M NaCl, 0.05% Surfactant P20) were purchased from GE Healthcare as 10× stocks (cat. nos.: BR-1006-69 and BR-1006-71). Calcium Chloride solution was obtained from Sigma Aldrich (cat. no.:21115).
(§2) The method employed to determine the affinity of the anti-TG2 antibodies involved the capture of the chimeric or humanised antibodies on a MAH coated CM5 chip, followed by the injection of a series of TG2 samples in running buffer. The running buffer was 1×HBS-P+ containing 1 mM CaCl_2, or 1×HBS-EP+ for calcium-free experiments. Antibody capture was carried out for a contact time of 120 seconds at a flow rate of 10 μl/min resulting in the capture of approximately 40-80 RU. TG2 was injected over the immobilised antibody at concentrations ranging from 25 nM to 400 nM with a contact time up to 600 seconds at a flow rate of 30 μl/min. Dissociation of TG2 was typically measured for up to 5400 seconds (1.5 hours). Regeneration of the chip was then performed using 3 M MgCl_2, for a contact time of 60 seconds at a flow rate of […], followed by a 300 s stabilisation period before the next sample. For each of human and cynomolgus monkey TG2, at least 5 injections at a variety of concentrations were performed in at least two separate experiments.
(§3) Kinetic data were exported from the Biacore T200 Evaluation Software and analysed using GraphPad Prism, where the association phases and dissociation phases were analysed separately using a one phase association model and one-phase exponential decay model respectively. Association rates ($kon$) were calculated for each curve individually, and dissociation rates ($koff$) values from the long dissociation phase data collected. Where $koff$ values were calculated to be $<1\times10^-5$ s^-1, values were set at 1×10^-5 for analysis, as rates slower than this could not be estimated accurately.

[2] = molecular target: T2, human transglutaminase type 2 (TG2); experiment: as above
Protocol: as §1, §2, §3

cynomolgus monkey TG2 [3] = molecular target: T1, cynomolgus monkey TG2; experiment: SPR (Biacore T200), antibody captured on anti-human IgG1 Fc chip, TG2 injected; +Ca2+
Protocol: as §1, §2, §3

[4] = molecular target: T2, human transglutaminase type 2 (TG2); experiment: as above
Protocol: as §1, §2, §3

Row | Kd (cynomolgus monkey TG2 [1]) [nM] | koff (cynomolgus monkey TG2 [1]) [s⁻¹] | kon (cynomolgus monkey TG2 [1]) [M⁻¹ s⁻¹] | Kd [2] [nM] | koff [2] [s⁻¹] | kon [2] [M⁻¹ s⁻¹] | Kd (cynomolgus monkey TG2 [3]) [nM] | koff (cynomolgus monkey TG2 [3]) [s⁻¹] | kon (cynomolgus monkey TG2 [3]) [M⁻¹ s⁻¹] | Kd [4] [nM] | koff [4] [s⁻¹] | kon [4] [M⁻¹ s⁻¹] | Binder
1 | < 0.05 | < 1e-05 | 190000 | < 0.07 | < 1e-05 | 150000 | < 0.03 | < 1e-05 | 290000 | < 0.05 | < 1e-05 | 210000 | cBB001 chimeric antibody (murine BB7 variable regions) (antibody, human IgG1, V domains shown, also called chimeric BB7) VH: AVQLVESGGGLVKPGGSLKLSCAASGIIFSSSAMSWVRQTPEKRLEWVATISSGGRSTYYPDSVKGRFTVSRDSAKNTLYLQMDSLRSEDTAIYYCAKLISPYWGQGTTLTVSS VL: AIKMTQSPSSMYASLGERVIITCKASQDINSYLTWFQQKPGKSPKTLIYLTNRLMDGVPSRFSGSGSGQEFLLTISGLEHEDMGIYYCLQYVDFPYTFGGGTKLEIK
2 | 2.4 | 6.3e-05 | 26000 | 23 | 0.00049 | 21000 | < 0.7 | < 1e-05 | 15000 | 0.64 | 1.8e-05 | 28000 | cDH001 chimeric antibody (murine DH2 variable regions) (antibody, human IgG1, V domains shown) VH: not shown VL: QIVLTQSPAIMSASPGEKVTMTCSASSSVSYMYWYQQKPGSSPRLLIYDTSNLASGVPVRFSGSGSGTSYSLTISRMEAEDAATFYCQQWSSSPLTFGAGTKLELK
3 | 0.89 | 4.1e-05 | 46000 | 3.1 | 7.1e-05 | 23000 | 0.52 | 1.6e-05 | 31000 | 0.43 | 1.3e-05 | 30000 | cDD9001 chimeric antibody (murine DD9 variable regions) (antibody, human IgG1, V domains shown) VH: not shown VL: QIVLTQSPAIMSASPGEKVTMTCSASSSVDYMYWYQQKPGSSPRLLIYDTSNLASGVPVRFSGSGSGTSYSLTISRMGAEDAATYYCQQWNSSPLTFGAGTKLELK
